In the supplement of paper PMC9170038:

Tested on: MS2 coat protein
Assay: apparent KD of MS2 coat protein; designed switch direction (-1 OFF switch, 1 ON switch): -1; higher = weaker reporter binding
Method in brief: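 Apparent KD, taken as the median over clusters for each design, was obtained by curve-fitting normalised cluster fluorescence. Designed RNA switches had been transcribed on Illumina chips by stalled E. coli RNA polymerase and titrated with SNAP-549-labelled MS2 coat protein, doubling from 0.7 or 1.5 nM to 3 µM.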

[1] = input ligand: microRNA oligo, concentration not stated
[2] = Eterna round: R95, input ligand: microRNA oligo, concentration not stated
[3] = Eterna round: R95, input ligand: FMN 200 uM
[4] = Eterna round: R95, input ligand: none

Row | Sequence | apparent KD of MS2 coat protein (input ligand: FMN 200 uM) [nM] | apparent KD of MS2 coat protein [1] [nM] | apparent KD of MS2 coat protein (input ligand: none) [nM] | apparent KD of MS2 coat protein [2] [nM] | apparent KD of MS2 coat protein [3] [nM] | apparent KD of MS2 coat protein [4] [nM]
1 | GGUGUCGUCAGAAGACAUGAGGAUCACCCAUGUAAAUGCACUGAGGAUAUACGGGCGACCGGCGUGUAGAAGGUAGAGCACGAA [Ladivequ] (Eterna round: R96, puzzle: Exclusion NG 3) | 43 | 24.5 | 41.6 | – | – | –
2 | GGUGUGCUAGGAUAUGCUUUGGGCUCGCUUACCUUCGUUUUACUUGAGGAUCACCCAAGUAGAAGGUGCUUGCC [salish99_ex2_r4_039] (Eterna round: R97, puzzle: Exclusion 2) | 13.1 | – | 12.4 | – | – | –
3 | GGUUACAAGCUAAGAUCCUACAUGAGGAUCACCCAUGUGGUCCGGUGACGUGAGUCACCGGACUUAGCUCGUCUUGU [salish99_S_TOV1_R5_002] (Eterna round: R97, puzzle: Sensor, turn-off variant 1) | 75.4 | – | 80 | – | – | –
4 | GGUUCACGAGGAUAUCGAUUUUAGUACAUGAGGAUCACCCAUGUUGUCCAGGUUUCGAUUCGAGAAGGCGUGAACC [LRO-Ex5-04] (puzzle: Exclusion 5) | – | – | – | 20.8 | – | –
5 | GGUUGACAUGAGGAUCACCCAUGUGAGGAUAUGCGAGAGAAAAAAGUGAGGAAGAAGAGCAGAAGGCGCUGUCG [salish99-ex1_r3_012] (puzzle: Exclusion 1) | – | – | – | 134 | 99.4 | 117
6 | GGUUGGCGAGGAUAUACAUGAGGAUCACCCAUGUGAAAAUAAAGUGAGGAAAAGAAAAGUAGAAGGCGCUGACG [Mat - Exclusion 3 - Mod of Salish D55] (puzzle: Exclusion 3) | – | – | – | 72.7 | 158 | 118
7 | GGUUGGCGAGGAUAUACAUGAGGAUCACCCAUGUGAGAGAAAAAAGUGAGGAAGAAAAGUAGAAGGCGCUGACA [salish99_ex3_r3_046] (puzzle: Exclusion 3) | – | – | – | 43.9 | 188 | 54.1
8 | GGUUGGCGAGGAUAUACAUGAGGAUCACCCAUGUGAGAGAAAUAAGUGAGGAAGAAAAGUAGAAGGCGCUGACG [salish99_ex3_r3_014] (puzzle: Exclusion 3) | – | – | – | 59.4 | 222 | 79.2
9 | GGUUGGCGAGGAUAUACAUGAGGAUCACCCAUGUGAGAGUAAAAAGUGAGGAAGAAAAGUAGAAGGCGCUGACG [salish99_ex3_r3_011] (puzzle: Exclusion 3) | – | – | – | 36.3 | 68.6 | 44
10 | GGUUGGCGAGGAUAUACAUGAGGAUCACCCAUGUGAUAGAAAAAAGUGAGGAAGAAAAGUAGAAGGCGCUGACG [salish99_ex3_r3_009] (puzzle: Exclusion 3) | – | – | – | 50.1 | 723 | 187
11 | GGUUGGCGAGGAUAUACAUGAGGAUCACCCAUGUGAUCCUAAGGCUGAUCAAGCCUAUGUAGAAGGCGCAAAUC [salish99_ex3_r4_009] (Eterna round: R97, puzzle: Exclusion 3) | 49.7 | – | 260 | – | – | –
12 | GGUUGGCGAGGAUAUACAUGAGGAUCACCCAUGUGGUCCUAAGGCUGAUCAAGCCUAUGUAGAAGGCGCAAAUC [salish99_ex3_r4_010] (Eterna round: R97, puzzle: Exclusion 3) | 37.7 | – | 223 | – | – | –
13 | GGUUGGCGAGGAUAUACAUGAGGAUCACCCAUGUGGUCCUGUGGCUGGUCUAAACUUUGUAGAAGGCGCGGGUC [salish99_ex3_r4_022] (Eterna round: R97, puzzle: Exclusion 3) | 84.9 | – | 78.1 | – | – | –
14 | GUAAACGAAGAGGAUAUAUGAUAUCAAAGCUUCAUAGAAGGCUUCACAUGAGGAUCACCCAUGUGAUCUUCAAG [Mat - Exclusion 6 - JL Mod - D25] (Eterna round: R97, puzzle: Exclusion 6) | 354 | – | 71.5 | – | – | –
15 | GUAAAGUGAGGAUAUGGUAAAUUAAUUAUUAAUUAAUUAAUCCAGAAGGCACAUGAGGAUCACCCAUGUAAUUG [Mat - Exclusion 4 - D86] (puzzle: Exclusion 4) | – | – | – | 22.2 | – | –
16 | GUAACAUGCUGGUGAUCAUACAUGAGGAUCACCCAUGUAACAAGCUUUUUGUUCGUCUUAAUUUAAUUGAUUACUAG [Stov1/8-B2] (Eterna round: R97, puzzle: Sensor, turn-off variant 1) | 202 | – | 196 | – | – | –
17 | GUAAUCUUAGGAUAUUUACGGGUCGACAUGAGGAUCACCCAUGUACCCACGUAGGCCUGAGAAGAAGGAAGAUGAC [EX5 C.24] (Eterna round: R97, puzzle: Exclusion 5) | 22.1 | – | 14.5 | – | – | –

Row | Sequence | apparent KD of MS2 coat protein (input ligand: FMN 200 uM) [nM] | apparent KD of MS2 coat protein [1] [nM] | apparent KD of MS2 coat protein (input ligand: none) [nM] | apparent KD of MS2 coat protein [2] [nM] | apparent KD of MS2 coat protein [3] [nM] | apparent KD of MS2 coat protein [4] [nM]
18 | GUACUACGAGGAUAUAUAUAAUGGGAAGCCCAGGCCAUUGCACAUGAGGAUCACCCAUGUAGAAGGCGUGGUCA [Eternabot (L2) Solution 28] (Eterna round: R97, puzzle: Exclusion 2) | 40.3 | – | 16.7 | – | – | –
19 | GUACUGAGGCUUUGCUUUAGUCGUACAUGAGGAUCACCCAUGUAGGAUAUGGUAGGCUUUGCUUACCAGAAGGACAGAGUGAUC [JL EXNG3 1.22] (Eterna round: R96, puzzle: Exclusion NG 3) | – | 188 | – | – | – | –
20 | GUAGAGUAAGGAUAUCGUGAAUAGGAUAGAAUGGUUAGAAACGAGAAGGUACAUGAGGAUCACCCAUGUAAUGU [Excluse me!!!! 17 - Jieux - Exclusion 4] (puzzle: Exclusion 4) | – | – | – | 20.8 | – | –
21 | GUAGAGUAAGGAUAUGGUGAAUAGGAUAGAAUGGUUAGAAACUAGAAGGUACAUGAGGAUCACCCAUGUAAUGU [Excluse me!!!! 23 - Jieux - Exclusion 4] (puzzle: Exclusion 4) | – | – | – | 20.8 | – | –
22 | GUAGAGUCAGGAUAUACAAAACCAUCGAAAGAUGGAUCCAUACAUGAGGAUCACCCAUGUAGAAGGGACUCUAC [Eli x2 4.17] (Eterna round: R97, puzzle: Exclusion 2) | 21 | – | 17.1 | – | – | –
23 | GUAGAGUCAGGAUAUACAAGAUCGAAAGAUCAAAGAUCCAUACAUGAGGAUCACCCAUGUAGAAGGGACUCUAC [Eli x2 4.10] (Eterna round: R97, puzzle: Exclusion 2) | 73.5 | – | 22.4 | – | – | –
24 | GUAGAGUCAGGAUAUACAAGAUCGAAAGAUCGGCGAUCCAUACAUGAGGAUCACCCAUGUAGAAGGGACUCUAC [Eli x2 4.003] (Eterna round: R97, puzzle: Exclusion 2) | 560 | – | 33.4 | – | – | –
25 | GUAGAGUCAGGAUAUACGAGAUCGAUAGAUCGGCGAUCCCUACAUGAGGAUCACCCAUGUAGAAGGGACUCUAC [Mat - Exclusion 2 - Eli Mod - D12] (Eterna round: R97, puzzle: Exclusion 2) | 37.6 | – | 15.6 | – | – | –
26 | GUAGAGUGAGGAUAUACGAGAUCGAUAGAUCGGCGAUCCAAACAUGAGGAUCACCCAUGUAGAAGGCACUCUAC [Mat - Exclusion 2 - Eli Mod - D6] (Eterna round: R97, puzzle: Exclusion 2) | 455 | – | 90.4 | – | – | –
27 | GUAGGUUAAGUAAGGAUAUACCUCUGGAAACAGAGGUAGAAGGUACAUGAGGAUCACCCAUGUUUCUCUUUUGC [Mod of Eli 6 - Jieux - Brourd's mod of Exclusion 4] (Eterna round: R97, puzzle: Brourd's mod of Exclusion 4) | 21.8 | – | 18.7 | – | – | –
28 | GUAUAACAUGUAGGAUAUGCGUGGCGAAGCUAUGCAGAAGGACAUGAGGAUCACCCAUGUAAUAGCGUCUGCGUACAGAUGCAA [Mat - Exclusion NG 1 - Mod of JL - D90] (Eterna round: R96, puzzle: Exclusion NG 1) | 134 | 27.9 | 40.8 | – | – | –
29 | GUAUAACUACACGGGCUCAACAUGAGGAUCACCCAUGUCUUAUACGCAAGCUUUUUGCUUGUCUUAUCUGUCCGUGA [Tibimaesan] (puzzle: Sensor v3, turn-off variant 1) | – | – | – | 11.9 | 12.6 | 12.3
30 | GUAUGAGGAGGAUAUACGUAUCCUUGACCCUGCUAGCGCGGACAUGAGGAUCACCCAUGUAGAAGGUUUCGACA [Eternabot (L1) Solution 46] (Eterna round: R97, puzzle: Exclusion 2) | 28.8 | – | 38.6 | – | – | –
31 | GUAUGGAGAGUGAGGAUAUUUCCUGAGUGAUCAGCGAAGAAGGUACAUGAGGAUCACCCAUGUAGGUGGACUAA [Eternabot (L1) Solution 14] (Eterna round: R97, puzzle: Brourd's mod of Exclusion 4) | 82.4 | – | 70.5 | – | – | –
32 | GUAUGUGACGAGGAUAUCACCUUGUUACUUAGAUGAGAAGGCGUCACAUGAGGAUCACCCAUGUGAUGAAAAGA [EX6 A.14] (Eterna round: R97, puzzle: Exclusion 6) | 27.4 | – | 21.4 | – | – | –
33 | GUAUGUGCGAGAGGAUAUCGUGUACAAAGUACACGAGAAGGCUUCACAUGAGGAUCACCCAUGUACCGAGGUGAAACACCUUGA [Omei Exc(NG)1 Bv8] (Eterna round: R96, puzzle: Exclusion NG 1) | 934 | 173 | 270 | – | – | –
34 | GUCACAUGGACAUAGGAUCACAUGAGGAUCACCCAUGUGACUAACAAGCUUUUUGCUCGUCUUAUGUCUAUGUGAAU [Stov1/16-A2] (Eterna round: R97, puzzle: Sensor, turn-off variant 1) | 14 | – | 14.3 | – | – | –
